Numbering of substitutions follows the chain as printed. Numbers in names are those of the source. Blank lines part the entries; values can stand above or below the binder they belong to.
Experiments:
[1] = target: T1, recombinant Cad-11 EC1 human IgG1 fusion protein (R&D Systems Cat. No. 1790-CA-050) (human, UniProt P55287 54-617, limits assumed); test: competition ELISA on coated recombinant human Cad-11 EC1 fusion; competitor biotinylated SYN0012/H1M1 at 0.1 µg/ml
T1 construct: Bought protein; the catalogue product may hold more of the extracellular region; also called recombinant human Cad-11 EC1; recombinant human Cad-11 fusion protein; not shown: human IgG1 part of the bought fusion protein
T1 sequence: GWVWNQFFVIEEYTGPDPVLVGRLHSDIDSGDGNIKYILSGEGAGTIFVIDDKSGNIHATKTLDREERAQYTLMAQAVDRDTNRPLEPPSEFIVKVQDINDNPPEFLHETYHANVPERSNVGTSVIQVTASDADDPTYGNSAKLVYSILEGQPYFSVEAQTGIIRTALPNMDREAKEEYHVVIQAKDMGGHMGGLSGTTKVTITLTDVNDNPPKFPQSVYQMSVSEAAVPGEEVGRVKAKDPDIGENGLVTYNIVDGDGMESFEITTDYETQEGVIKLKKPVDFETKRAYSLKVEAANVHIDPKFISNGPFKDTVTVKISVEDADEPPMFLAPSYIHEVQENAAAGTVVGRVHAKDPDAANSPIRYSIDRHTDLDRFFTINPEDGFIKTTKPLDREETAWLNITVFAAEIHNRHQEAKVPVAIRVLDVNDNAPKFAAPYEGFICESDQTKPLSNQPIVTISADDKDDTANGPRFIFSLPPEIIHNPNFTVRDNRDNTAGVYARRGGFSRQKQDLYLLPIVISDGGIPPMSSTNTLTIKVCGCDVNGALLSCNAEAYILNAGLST
Description: The binding of the purified humanized composite variant antibodies (SDP011 to SDP151) to a recombinant Cad-11 EC1 human IgG1 fusion protein was assessed in a competition binding ELISA. A dilution series from 5 μg/ml to 0.0022 μg/ml of the humanized or control (SYN0012/H1M1) antibodies was premixed with a constant concentration of biotinylated murine anti-Cad-11 antibody, SYN0012/H1M1 (0.1 μg/ml, final concentration), before incubating for 1 hour at room temperature on a Nunc Immuno MaxiSorp 96 well flat bottom microtitre plate (Fisher Cat. No. DIS-971-030J) pre-coated with 0.25 μg/ml recombinant human Cad-11 EC1 (R&D Systems Cat. No. 1790-CA-050) diluted in PBS. The binding of the biotinylated mAb was detected with streptavidin-HRP (Sigma Cat. No. 55512) and tetramethylbenzidine (TMB) substrate (Invitrogen Cat. No. 00-2023).
The relative IC50 was calculated by dividing the value for the test antibody by that of SYN0012. Antibody expression levels given are for static cultures in T flasks. PI are calculated.

[2] = target: T2, BSA coupled 37-mer Cad-11 peptide encompassing the Cad-11 immunogen (UniProt P55287 54-90, limits assumed, linked to BSA); test: ELISA, BSA-coupled 37-mer cadherin peptide coated at 500 ng/ml, antibody titrated, A450
T2 construct: domain: 37-mer peptide encompassing the Cad-11 immunogen; also called Cad-11 antigen; Cad-11 peptide immunogen
T2 peptide (looked up): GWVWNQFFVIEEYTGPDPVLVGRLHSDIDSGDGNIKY
Description: Reactibind plates (ThermoScientific) were coated with 500 ng/ml of the BSA coupled cadherin 37-mer peptide (NE peptide) corresponding to Cadherins-7, -8, -9, -11, -18, -20, and -24 in 0.05% Tween (EMD, product code 9480) in PBS (pH 7.2) (Gibco(Invitrogen), #20012) at 100 μl volume/well for overnight at 4° C. The peptide containing solution was removed from the well and the plate blocked with a 2% bovine serum albumin (BSA) in PBS, 200 μl volume/well, for 2 h at 22° C. The plate was then washed twice with 200 μl/well of PBS-Tween 0.05% at 22° C. and blotted dry. A dilution series from 5 μg/ml to 8 ng/ml in a volume of 100 μl/well of each the humanized anti-Cad-11 antibodies were incubated in the peptide coated wells and incubated at 22° C. for 1 hr. Antibody solution was removed from the wells and the plate washed twice with 200 μl/well of 0.05% Tween-PBS at 22° C. and blotted dry. The goat-anti mouse IgG (Pierce # 31432) was added to each well to plate at a 1:1000 dilution, 100 μl/well and incubate at 22° C. for 30 min. The secondary antibody solution was removed and the plate washed twice with 200 μl/well of 0.05% Tween-PBS at 22° C. and blotted dry. The reaction was developed by adding 100 μl/well tetramethylbenzidine (TMB) reagent IgG (Pierce # 34022, 1 step Turbo TMB-ELISA) to plate and developed at 22° C. for 5 min.

[3] = target: T3, Peptide 4 (first 33 amino acids, G1-G33, of the human Cad-11 EC1 domain) (human); test: ELISA on biotinylated EC1 peptides
T3 construct: also called PEP4; Peptide 4 immunogen
T3 peptide: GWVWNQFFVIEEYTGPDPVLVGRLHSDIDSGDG
Description: The specificity of H1M1 and H14 anti-Cad-11 antibodies was tested further using an ELISA against the first 33 amino acids of the EC1 domains of Cad-11, Cad-7, Cad-8, Cad-20, Cad-24, Cad-9, Cad-18, and MN-Cad. Peptides corresponding to the region of Cad-7, Cad-8, Cad-20, Cad-24, Cad-9, Cad-18, MN-Cad that overlapped with the G1-G33 region of the Cad-11 EC1 domain were synthesized and conjugated to biotin. 100 μl of a 30 ng/ml solution of each of these peptides in PBS-Tween (0.05%) were incubated in each well of a 96-well Netravidin plate for 2-3 hrs at 4° C. and then washed twice with PBS-Tween (0.05%). Various concentrations of the anti-Cad-11 antibody were incubated in each well for 1 hr at 22° C. and then washed twice with PBS-Tween (0.05%). 100 μl of a 1/1000 dilution of a goat anti-mouse IgG secondary antibody were added to each well, incubated for 30 min at 22° C., and then washed twice with PBS-Tween (0.05%). 100 μl/well of room temperature TMB (3,3′,5,5′-tetramethylbenzidine) reagent was added to each well and color was allowed to develop for 5 min at 22° C.

relative IC50 (IC50 of the test antibody divided by that of SYN0012) [1]: 0.99 ratio (column head prints µg/mL) | EC50 (read off the curve) [2]: ~0.04 µg/mL
B1: humanized anti-Cad-11 EC1 antibody SDP051 (Vκ1/VH5) (antibody, IgG4, V domains shown)
VH: EVQLVQSGAEVKKPGASVKVSCKASGYSFTGYFMNWVRQAPGQGLEWIGRINPYTGDTFYNQKFKGRVTITVDKSTSTAYMELSSLRSEDTAVYYCGRLGSRYWYFDVWGQGTTVTVSS
VL: DVLMTQTPLSSPVTLGQPASISCRSSQSIIHSNGNTYLEWYLQKPGQSPQLLIYKVSNRFSGVPDRFTGSGSGTDFTLKISRVEAEDVGVYYCFQGSHVPWTFGQGTKLEIK
notes: humanized IgG4 (S241P), kappa

fold higher binding to Cad-11 than to any of the other cadherins tested [3]: > 100 fold
B2: murine H1M1 monoclonal anti-Cad-11 EC1 antibody (hybridoma H1M1, ATCC PTA-9699) (antibody, V domains shown)
VH: EVQLQQSGPELVKPGASVKISCKASGYSFTGYFMNWVKQSHGKSLEWIGRINPYTGDTFYNQKFKGKATLTVDKSSSTAHMELLSLSSEDSAVYYCGRLGSRYWYFDVWGAGTTVTVSS
VL: B1 VL with S11L, T14S, Q17D, P18Q, Q50K, V88L, Q105G
modifications: Biotinylated when used as the labelled competitor in Example 14; the letters are unchanged.
notes: murine antibody raised against Peptide 4; also called SYN0012; SYN0012/H1M1

Reference: US20110045003A1 (SYNOVEX, published 2011)
